From patent US20150335719A1, “Intravitreal Injection of a Chimeric Phage Endolysin Ply187; Protection from Staphylococcus aureus Endophthalmitis” (priority 2014, published 2015)

Key:
retinal cells = test: Cytotoxicity analysis in vivo (retinal cell death); details: data not shown
S. aureus = test: Antimicrobial activity in the presence of calf vitreous humor in vitro; assay type: cell-based, Staphylococcus aureus; details: calf VH, 10^5 CFU, 2, 4 and 6 h
From the text: FIGS. 4 A, B and C depict the effect of chimeric Ply187AN-KSH3b on bacterial growth in vivo and in the vitreous humor (VH) in vitro and with increasing inoculums in vitro respectively. […] Twenty-four hours after the treatment, the eyes were enucleated, homogenized and the bacterial burden was estimated via serial dilution plating. FIG. 4B depicts a test showing the effect of the vitreous humor on Ply187AN-KSH3b antimicrobial activity where Ply187AN-KSH3b was mixed with calf vitreous humor and inoculated with 10^5 CFU of S. aureus. The survival of the bacteria was enumerated by CFU count at 2, 4 and 6 h of incubation. Statistical analysis was performed using unpaired student's t test (*, p<0.05; **, p<0.005; ***, p<0.0005). […] An increasing number of dilutions (1:10,000 to 1:10) of logarithmic phase of S. aureus (RN6390 strain) were treated with Ply187AN-KSH3b for 1 h followed by CFU enumeration on TSA plates. Statistical analysis was performed using unpaired student's t test (*, p<0.05; **, p<0.005; ***, p<0.0005).
To determine the effect of Vitreous Humor (VH) on antimicrobial activity of chimeric Ply187AN-KSH3b in vitro, bacteria (10^5 CFU) were incubated with chimeric Ply187AN-KSH3b in the presence of calf VH. Following incubation at 37° C. for the desired time, bacterial growth in VH was enumerated by serial dilution plating. […]

S. aureus strain RN6390 = test: Resistance development assay by repeated exposure in an MIC assay; assay type: cell-based, Staphylococcus aureus; details: RN6390, up to 10 rounds of exposure
Experimental: Error bars represent SEM for three independent experiments performed in triplicates. […] Cells surviving at half (½) of the MIC value were used as an inoculum for each subsequent round of exposure. The change in susceptibility is recorded and presented as fold change resistance from day 1 to 10 of exposure and also after 5 days of growth (without any selection pressure) following the 10th day (represented as 10+5). The data represent means±SEM of two independent experiments performed in triplicate.
To verify and quantify the lytic activity against live S. aureus, we have tested Ply187AN-KSH3b in the Turbidity Reduction Assay. The turbidity assay measures the drop in optical density (OD) resulting from lysis of the target bacteria with the phage endolysin-derived protein. Turbidity reduction assays by chimeric Ply187AN-KSH3b were performed in a 96 well plate as described previously by Becker et al. (2009a, 2009b, supra). Briefly, S. aureus strains/isolates RN6390, USA 300, and clinical isolates R2932, R2952 and R3000 were grown to logarithmic phase (OD600 0.4-0.6) at 37° C. in tryptic Soy broth (TSB). The culture was harvested by centrifugation and the pellet was resuspended in assay buffer (400 mM NaCl, 20 mM Tris HCl, 1% glycerol, pH 7.5). Bacterial cultures (100 μl/well) were mixed with 100 μl of (as per MIC) of chimeric Ply187AN-KSH3b protein diluted in the same assay buffer. The reduction in the turbidity was measured after every 5 min up to 1 h using a micro plate reader. EB diluted in the same assay buffer (without chimeric Ply187AN-KSH3b protein) was used as a control (EB C). Resistance development against chimeric Ply187AN-KSH3b was tested using repeated exposure in an MIC assay as described by Rodriguez-Rubio and co-workers (Rodriguez-Rubio et al., PLoS One 8:e64671.). In brief, bacterial cultures (10^5 CFU/well) were exposed overnight to a 2-fold serial dilution of chimeric Ply187AN-KSH3b, lysostaphin, and gentamicin, where the latter serve as controls. […]

[1] = test system: inflammatory cytokines/chemokines in S. aureus-infected eyes; test: Mouse S. aureus endophthalmitis: inflammatory cytokines/chemokines by ELISA; assay type: in vivo, C57BL/6 mice
Experimental: Following treatment with chimeric Ply187AN-KSH3b or EB (EB C), the eyes (n=4 per time point) were enucleated and 10 μg protein lysate was used for the detection of indicated inflammatory cytokines/chemokines by ELISA. *p<0.05, **p<0.005 (student t-test, SA or EB vs. Ply187AN-KSH3b-treated)
To measure the inflammatory cytokines, retinal extracts were processed by homogenization in 250 μl of PBS, followed by centrifugation at 12,000×g for 10 min. PBS-injected mice were used as normal controls (PBS C) and EB-treated mice were used as vehicle controls (EB C). The protein concentration of the retinal lysate was determined by the Micro BCA™ protein assay kit (Thermoscientific, Rockford, Ill.). Equal amounts of protein were used to perform the ELISA, per the manufacturer's instructions (BD biosciences, San Diego, Calif. (IL-6, IL1β & TNFα) and R & D systems, Minneapolis, Minn. (MIP2 & KC).

[2] = intravitreal injection alone
[3] = 6 h and 12 h treatment, vs vehicle-treated and S. aureus control eyes

B1: Ply187AN-KSH3b: staphylococcal peptidoglycan hydrolase fusion protein: endopeptidase domain of prophage endolysin Ply187 plus SH3b cell wall-binding domain of phage K endolysin LysK (SEQ ID NO:1) (protein)
chain: MALPKTGKPTAKQVVDWAINLIGSGVDVDGYYGRQCWDLPNYIFNRYWNFKTPGNARDMAWYRYPEGFKVFRNTSDFVPKPGDIAVWTGGNYNWNTWGHTGIVVGPSTKSYFYSVDQNWNNSNSYVGSPAAKIKHSYFGVTHFVRPAYKAEPKPTPPLESTPATRPVTGSWKKNQYGTWYKPENATFVNGNQPIVTRIGSPFLNAPVGGNLPAGATIVYDEVCIQAGHIWIGYNAYNGNRVYCPVRTCQGVPPNQIPGVAWGVFKVEHHHHHH
modifications: Chemically Synthesized Fusion Protein
retinal cell death in vivo (retinal cells): does not cause retinal cell death | killing activity in presence of vitreous humor (viable count) (S. aureus): does not adversely affect the killing activity | fold change in resistance (S. aureus strain RN6390): failed to develop any resistance | level of IL-1β [1, 3]: dramatically reduced levels | level of IL-6 [1, 3]: dramatically reduced levels | level of KC (CXCL1) [1, 3]: dramatically reduced levels | level of MIP2 (CXCL2) [1, 3]: dramatically reduced levels | level of TNFα [1, 3]: dramatically reduced levels | MIP-2 reduction, 6 h compared with 12 h treatment ([1]; 6 h vs. 12 h treatment): greater reduction after 6 h vs. 12 h treatment | inflammatory response in the eye [2]: does not evoke an inflammatory response
